Results: patent publication US12564623B2, “Methods and compositions for treating cancer” (The University of Chicago, priority 2017, dated 2026)

Key:
[1] = system: MDA-MB-231, A549, MEL888, M1, 4195, E0771, LLC1, B16F10 tumors; test: Tumor growth in xenograft, PDX and syngeneic models; assay type: in vivo, mice; details: 11.6 μg intratumorally once/day for 5 days
Method: MDA-MB-231, A549, or MEL888 cells (xenograft model) were injected into athymic nude mice; M1 or 4195 tumors (TNBC PDX models) were propagated in SCID mice; and E0771, LLC1, or B16F10 cells (syngeneic models) were injected into C57BL/6 mice. Once tumors reached ˜100 mm^3, ELANE (11.6 μg), or PMSF-ELANE (11.6 μg) were delivered intratumorally once/day for 5 days. n=8-15 mice/group. Tumor volume was assessed by calipers. Kaplan-Meier curve was plotted and the logrank test (Mentel-Cox method) was used for mouse survival analysis. Day 0 refers to the first treatment day. End point of survival is defined as tumor volume >1000 mm^3. (FIG. 15)

CD95 = CD95 immunoreactivity and ELANE uptake in non-cancer cells; assay type: cell-based
Method: Non-cancer cells were treated with ELANE (50 nM) for 1 hr, fixed in 10% formalin, and stained with N- or C-terminal specific anti-CD95 antibodies. Hoechst 33342 solution was used for nuclear staining. Images were taken under 40×. […] Non-cancer cells were treated with ELANE (100 nM) in the presence or absence of a broad endocytosis inhibitor Dynasore (80 μM) for 30 mins. ELANE catalytic activity in cell lysates was assessed using a chromogenic substrate assay.

B1: neutrophil elastase (protein, listed as Homo sapiens)
chain: MTLGRRLACLFLACVLPALLLGGTALASEIVGGRRARPHAWPFMVSLQLRGGHFCGATLIAPNFVMSAAHCVANVNVRAVRVVLGAHNLSRREPTRQVFAVQRIFENGYDPVNLLNDIVILQLNGSATINANVQVAQLPAQGRRLGNGVQCLAMGWGLLGRNRGIASVLQELNVTVVTSLCRRSNVCTLVRGRQAGVCFGDSGSPLVCNGLIHGIASFVRGGCASGLYPDAFAPVAQFVNWIDSIIQRSEDNPCPHPRDPDPASRTH
notes: purified native ELANE
tumor growth [1]: attenuates tumor growth in many cancer models | CD95 immunoreactivity of non-cancer cells (CD95; 50 nM, 1 hr): loss of immunoreactivity with a C-terminal specific antibody | uptake by non-cancer cells (CD95; 100 nM, 30 mins): internalized by non-cancer cells
